The source of these data is the supplement of paper PMC9170038.

The data set deals with MS2 coat protein. The data set can be described thus: apparent KD of MS2 coat protein; higher = weaker reporter binding. Particulars: Eterna round: R107. A digest of the protocol:
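Designed RNA switches, transcribed on-chip from Illumina sequencing clusters, were titrated with SNAP-549-labelled MS2 coat protein from 0.7 or 1.5 nM to 3 µM in twofold steps. The solution was 100 mM Tris-HCl pH 7.5, 80 mM KCl, 4 mM MgCl2, with constant ligand or without it. Apparent KD is the median over each design's normalised cluster binding-curve fits.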

Where [1] appears, read: input ligand: theophylline 20 uM.
[2] abbreviates: input ligand: tryptophan 2.4 mM.
The mark [3] stands for this setting: input ligand: theophylline 2 mM.

Regarding “AUCGUACCUGGUGAUACCAGCAAUUGCUCGUGACAUGAGGAUCACCCAUGUGACCAGUGAUGCCCUUGGCAGCAUGGUCGGUGCA [Same State - Theophylline B (Freestyle 23)]”, the “apparent KD of MS2 coat protein” value worked out at 36.8 nM (input ligand: arginine 13.2 mM), 65.3 nM under setting [1] and 61.2 nM under setting [2].

With “AUCUCAUAGAGUGAUACCAGACUACAUGAGGAUCACCCAUGUUACAUUUAAAUAUCAUUUGUCCCUUGGCAGCACAUUAAGUACA [JR_Nu_ExcTheophyB_Sub019]”, the “apparent KD of MS2 coat protein” value is 25.6 nM (input ligand: arginine 13.2 mM), 33.2 nM under setting [1] and 23.4 nM under setting [2].

Turning to “AUCUCAUAGAGUGAUACCAGACUACAUGAGGAUCACCCAUGUUAGAUUUAAAUAUCAUUUGUCCCUUGGCAGCACAUUAAGUACA [JR_Nu_SSTheophyB_Sub021]”, the “apparent KD of MS2 coat protein” value turned out to be 14.2 nM (input ligand: arginine 13.2 mM), 14.8 nM under setting [1] and 12.7 nM under setting [2].

As for “AUGCAUAUCAGAAGGAGCGUCAUUAACAUGAGGAUCACCCAUGUAACAUUGAAUUCGAUGAGACAGGUAGGUCGCUGAAUAGUAA [SS-ArgB26]”, the “apparent KD of MS2 coat protein” value (input ligand: arginine 13.2 mM) was 26.6 nM; the “apparent KD of MS2 coat protein” value (input ligand: none) came out at 35.6 nM; the “apparent KD of MS2 coat protein” value under setting [1] came to 44.9 nM; the “apparent KD of MS2 coat protein” value under setting [3] is 37.9 nM; the “apparent KD of MS2 coat protein” value under setting [2] was found to be 31.1 nM.

Turning to “AUGCCUAGUGGAAGGAGCGAGGGUCUUCUCAACAUGAGGAUCACCCAUGUUCUUUUACACCCUCAGGUAGGUCGCCAUUGGGACA [Biraanve]”, the “apparent KD of MS2 coat protein” value reads like this: (input ligand: arginine 13.2 mM) 25.1 nM; (input ligand: none) 55 nM; under setting [1], 85.2 nM; under setting [3], 44.6 nM; under setting [2], 61.2 nM.

For “AUGCGGUGCGGAAGGAGCGAGUUUGCCUAUUACAUGAGGAUCACCCAUGUGGGUAAUGGGACUCAGGUAGGUCGCCGUUGUCGCA [Same State Arginine B GF 28]”, the “apparent KD of MS2 coat protein” value by setting is: (input ligand: arginine 13.2 mM) 41.9 nM; (input ligand: none) 57.5 nM; under setting [1], 77.9 nM; under setting [3], 65.1 nM; under setting [2], 50.1 nM.

Take “AUGGUCGACGAUCUGCGAAAAGCAGAUCGACGAGGACCGGUACGGCCGCCACUCGUGUUCAUUAAACAUGAGGAUCACCCAUGUA [#15Tryptophan A Same State]”: the “apparent KD of MS2 coat protein” value by setting is: (input ligand: arginine 13.2 mM) 41 nM; under setting [1], 68.7 nM; under setting [3], 70.2 nM.

Turning to “AUGGUUGUCGCGGCCGCCACUGUCGGCCGCCACUAAACAUGAGGAUCACCCAUGUAGGACCGGGACAGGACCGGGUGAUAACCAC [TryBS - #DoubleAptamer 3]”, the “apparent KD of MS2 coat protein” value stood at 24.1 nM (input ligand: arginine 13.2 mM); 25.9 nM (input ligand: none); 33.9 nM under setting [1]; 33.2 nM under setting [3]; 14.3 nM under setting [2].

“AUGUUUGUGUGAGAUACCAGUGAGGCCACAUGAGGAUCACCCAUGUCCCUCACUCCGGCCCACCCUUGGCAGCUCUUAUAGUAAA [Exclusion Theophylline B GF 25]”: the “apparent KD of MS2 coat protein” value (input ligand: arginine 13.2 mM) worked out at 12 nM, the “apparent KD of MS2 coat protein” value under setting [1] is 12.9 nM and the “apparent KD of MS2 coat protein” value under setting [2] stood at 10.4 nM.

Regarding “AUUAAAAGUUGUGAUACCAGACGAACAUGAGGAUCACCCAUGUAACUUUUAGGUGUUGUAGUCCCUUGGCAGCACUAUGUAGUUA [JR_SSTheophyB_Sub012]”, the “apparent KD of MS2 coat protein” value reads like this: (input ligand: arginine 13.2 mM) 31.3 nM; under setting [1], 49.2 nM; under setting [2], 40.1 nM.

As for “AUUAAGGAUAUAUAGAAGGCGGAGAAGAGACGAGGACCGGUACGGCCGCCACUCGUGUUAGUUAACAUGAGGAUCACCCAUGUAA [Turkey 2]”, the “apparent KD of MS2 coat protein” value (input ligand: arginine 13.2 mM) is 41.3 nM, the “apparent KD of MS2 coat protein” value under setting [1] came out at 76.9 nM and the “apparent KD of MS2 coat protein” value under setting [3] is 102 nM.

For “AUUCAUGGAAACAUGACAUAGGGAUCCGGUCGAGGACCGGUACGGCCGCCACUCGUUUGGAGGCACAUGAGGAUCACCCAUGUUA [SS Tryp A #7]”, the “apparent KD of MS2 coat protein” value worked out at 40.7 nM (input ligand: arginine 13.2 mM), 118 nM under setting [1] and 101 nM under setting [3].

For the sequence “AUUGACAUGAGGAUCACCCAUGUAUCCGAAGGAGCGGCAGAUGUGCCAGGUAGGUCGCGGGUGAAAGAGACAUCGUAGGGUGUCG [Same State - Arginine A / B [only NuPack]]”, the “apparent KD of MS2 coat protein” value worked out at 73.9 nM (input ligand: arginine 13.2 mM); 256 nM (input ligand: none); 207 nM under setting [1]; 469 nM under setting [3]; 229 nM under setting [2].

On to “AUUGGGUUAUCAGAUACCAGACUAUUCUAGACAUGAGGAUCACCCAUGUAUUGGGUUUUCGUCCCUUGGCAGCUGUUAAGUUUAA [JR_SSTheophyB_Sub005]”, for which the “apparent KD of MS2 coat protein” value was 117 nM (input ligand: arginine 13.2 mM), 195 nM under setting [1] and 165 nM under setting [2].

Take “AUUGUCGCGUCGGCCGCCACUGUCAUGGUUUUCGUGGAACACAUGAGGAUCACCCAUGUAAUUGACAGGACCGGGACGUGGCGGC [Vevea]”: the “apparent KD of MS2 coat protein” value reads like this: (input ligand: arginine 13.2 mM) 10.2 nM; (input ligand: none) 8.64 nM; under setting [1], 11.1 nM; under setting [3], 10.6 nM; under setting [2], 12.2 nM.

Take “AUUUAUUAGACGGCCGCCACUUGAAAGCGACCUCAUAAAUGGGAACAUGAGGAUCACCCAUGUAAGAGGACCGGGUCUAGUAGAU [TryptB-ms2@45]”: the “apparent KD of MS2 coat protein” value is, setting by setting: (input ligand: arginine 13.2 mM) 132 nM; under setting [1], 150 nM; under setting [3], 318 nM.

For the sequence “CAAGAACAGCCAGAUCUUGGCAGCUGAGAAGGAGCGCGGGAAGCCGCAGGUAGGUCGCUCAGGAAUACAUGAGGAUCACCCAUGU [Beoror]”, the “apparent KD of MS2 coat protein” value runs as follows: (input ligand: arginine 13.2 mM) 19.8 nM; (input ligand: none) 17.6 nM; under setting [1], 24.6 nM; under setting [3], 20 nM; under setting [2], 17.2 nM.

On to “CAAUUUAGAAAACUAAAUUGAGUGGGUGAACGAGGACCGGUACGGCCGCCACUCGGACAUGAGGAUCACCCAUGUCCAUGUGAAA [AstrosExyTryA#23]”, for which the “apparent KD of MS2 coat protein” value reads like this: (input ligand: arginine 13.2 mM) 11.3 nM; (input ligand: none) 14.8 nM; under setting [1], 15.8 nM; under setting [3], 16.6 nM; under setting [2], 29.2 nM.
